Experimental findings from PMC8053128, “Structures of Neisseria gonorrhoeae MtrR-operator complexes reveal molecular mechanisms of DNA recognition and antibiotic resistance-conferring clinical mutations” are described below.

In one series the target is MtrR G45D (Neisseria gonorrhoeae, UniProt P39897 1-210, G45D). Description: fluorescence polarization; FP: 20 mM Tris-HCl pH 7.5, 100 mM NaCl, 2.5% glycerol, 1 mM TCEP, 1 ug BSA, 1 ug poly(dI-dC), 1 nM 5'-fluorescein DNA; temperature not stated; MtrR concentration as dimer. The conditions noted are these: protein: recombinant; tags: N-terminal His6 removed by TEV (pMCSG7); chain copies: 2; label: 5'-fluorescein. For orientation: In fluorescence polarisation assays a small probe gives low polarisation when free and higher when bound to something large.

The target in series [1] is T1, MtrR WT (Neisseria gonorrhoeae, UniProt P39897 1-210). Described as above. Conditions: protein: recombinant; tags: N-terminal His6 removed by TEV (pMCSG7); chain copies: 2; label: 5'-fluorescein.
A further series deals with MtrR T43A (Neisseria gonorrhoeae, UniProt P39897 1-210, T43A). The series is described as above. Conditions: protein: recombinant; tags: N-terminal His6 removed by TEV (pMCSG7); chain copies: 2; label: 5'-fluorescein.
For a further series, the target named is MtrR W49F (Neisseria gonorrhoeae, UniProt P39897 1-210, W49F). Described as above. Conditions: protein: recombinant; tags: N-terminal His6 removed by TEV (pMCSG7); chain copies: 2; label: 5'-fluorescein.
The target of the next series is MtrR H50A (Neisseria gonorrhoeae, UniProt P39897 1-210, H50A). The series is described as above. Conditions: protein: recombinant; tags: N-terminal His6 removed by TEV (pMCSG7); chain copies: 2; label: 5'-fluorescein.
The target in a further series is MtrR T43S (Neisseria gonorrhoeae, UniProt P39897 1-210, T43S). The series is described as above. Conditions: protein: recombinant; tags: N-terminal His6 removed by TEV (pMCSG7); chain copies: 2; label: 5'-fluorescein.
The target of another series is MtrR T11A (Neisseria gonorrhoeae, UniProt P39897 1-210, T11A). The series is described as above. The conditions noted are these: protein: recombinant; tags: N-terminal His6 removed by TEV (pMCSG7); chain copies: 2; label: 5'-fluorescein.
Another series concerns the target MtrR H105Y (Neisseria gonorrhoeae, UniProt P39897 1-210, H105Y). Described as above. The conditions noted are these: protein: recombinant; tags: N-terminal His6 removed by TEV (pMCSG7); chain copies: 2; label: 5'-fluorescein.
The next series deals with MtrR A39T (Neisseria gonorrhoeae, UniProt P39897 1-210, A39T). Described as above. Conditions: protein: recombinant; tags: N-terminal His6 removed by TEV (pMCSG7); chain copies: 2; label: 5'-fluorescein.
A further series has as its target MtrR R44A (Neisseria gonorrhoeae, UniProt P39897 1-210, R44A). The description is as above. The conditions noted are these: protein: recombinant; tags: N-terminal His6 removed by TEV (pMCSG7); chain copies: 2; label: 5'-fluorescein.
The target of the next series is MtrR G45A (Neisseria gonorrhoeae, UniProt P39897 1-210, G45A). The description is as above. The conditions noted are these: protein: recombinant; tags: N-terminal His6 removed by TEV (pMCSG7); chain copies: 2; label: 5'-fluorescein.
The target of series [2] is T1, MtrR WT. In words: fluorescence polarization; nonspecific binding only; FP: 20 mM Tris-HCl pH 7.5, 100 mM NaCl, 2.5% glycerol, 1 mM TCEP, 1 ug BSA, 1 ug poly(dI-dC), 1 nM 5'-fluorescein DNA; temperature not stated; MtrR concentration as dimer. Conditions: protein: recombinant; tags: N-terminal His6 removed by TEV (pMCSG7); chain copies: 2; label: 5'-fluorescein.
For a further series, the target named is Semet-MtrR WT (Neisseria gonorrhoeae, UniProt P39897 1-210). Description: X-ray crystallography; 2.6 A; 200 mM calcium acetate; FP: 20 mM Tris-HCl pH 7.5, 100 mM NaCl, 2.5% glycerol, 1 mM TCEP, 1 ug BSA, 1 ug poly(dI-dC), 1 nM 5'-fluorescein DNA; temperature not stated; MtrR concentration as dimer. Conditions: protein: recombinant; tags: N-terminal His6 removed by TEV (pMCSG7); chain copies: 2.

A further series deals with MtrR D79N (Neisseria gonorrhoeae, UniProt P39897 1-210, D79N). In words: fluorescence polarization; FP: 20 mM Tris-HCl pH 7.5, 100 mM NaCl, 2.5% glycerol, 1 mM TCEP, 1 ug BSA, 1 ug poly(dI-dC), 1 nM 5'-fluorescein DNA; temperature not stated; MtrR concentration as dimer. The conditions noted are these: protein: recombinant; tags: N-terminal His6 removed by TEV (pMCSG7); chain copies: 2; label: 5'-fluorescein.

B1: rpoH 27mer (dsDNA)
DNA 1: TACATACGTGGTTGTATGTAAACGGCC
DNA 2: GGCCGTTTACATACAACCACGTATGTA
B1: the binding result with MtrR G45D, with MtrR T43A and in the series with MtrR R44A was “no binding” throughout. Also, the Kd – broadly, the concentration at which binding is half-saturated – with MtrR WT [1] was 8 ± 1 nM; in the series with MtrR W49F, 53 ± 3 nM; with MtrR H50A, 376 ± 35 nM; with MtrR T43S, 860 ± 180 nM; with MtrR T11A, 441 ± 37 nM; in the series with MtrR H105Y it was 340 ± 57 nM. The dissociation constant (Kd) with MtrR A39T was found to be 31 ± 3 nM.

B2: ApY 27mer (dsDNA)
DNA 1: TACAATCGTGGTTGATTGTAAACGGCC
DNA 2: GGCCGTTTACAATCAACCACGATTGTA
On to B2, for which, in the series with MtrR WT [1], the Kd turned out to be 293 ± 24 nM.

B3: GpY 27mer (dsDNA)
DNA 1: TACATAGCTGGTGTTATGTAAACGGCC
DNA 2: GGCCGTTTACATAACACCAGCTATGTA
In the case of B3, the binding result with MtrR G45D, with MtrR T43A, with MtrR G45A, with MtrR A39T, with MtrR R44A and with MtrR WT [2] was “no binding” in each case. Further, the equilibrium dissociation constant (Kd) with MtrR H105Y was determined as 860 ± 80 nM.

B4: emrAB 22mer (dsDNA)
DNA 1: AGTCGGCTATATCATTGCTGTC
DNA 2: GACAGCAATGATATAGCCGACT
For the molecule B4, the binding result with MtrR G45D, with MtrR T43A, with MtrR G45A, with MtrR A39T, with MtrR R44A and in the series with MtrR WT [2] was “no binding” each time.

B5: rpoH 21mer (crystal) (dsDNA)
DNA 1: TACATACGTGGTTGTATGTAA
DNA 2: TTACATACAACCACGTATGTA
As to B5, in the series with Semet-MtrR WT, the binding result is given as “binds”.

B6: mtrCDE 21mer (dsDNA)
DNA 1: TATCCGTGCAATCGTGTATGT
DNA 2: ACATACACGATTGCACGGATA
As to B6, the binding result with MtrR G45D, with MtrR T43A, with MtrR D79N and in the series with MtrR R44A was “no binding” each time. Besides, the Kd in the series with MtrR WT [1] turned out to be 50 ± 4 nM; with MtrR W49F, 380 ± 44 nM; with MtrR H50A, 990 ± 100 nM; in the series with MtrR T11A, 1080 ± 93 nM; with MtrR H105Y, 640 ± 130 nM; with MtrR A39T, 170 ± 11 nM.

B7: mtrCDE 27mer (dsDNA)
DNA 1: TTTTTATCCGTGCAATCGTGTATGTAT
DNA 2: ATACATACACGATTGCACGGATAAAAA
Turning to B7, the Kd with MtrR WT [1] came out at 43 ± 4 nM.
